Reference: paper PMC7439480, “Phosphorylation-Dependent Assembly of a 14-3-3 Mediated Signaling Complex during Red Blood Cell Invasion by Plasmodium falciparum Merozoites” (mBio, 2020)
Non-standard residues stand in square brackets, D forms with d. No end group written: not given here. pS = N[C@@H](COP(=O)(O)O)C(=O)O

T1: recombinant glutathione S-transferase (GST)-tagged Pf14-3-3I protein (P. falciparum, UniProt C0H4V6 1-262)
T1 construct: 14-3-3 protein I, P. falciparum, PF3D7_0818200; also called Pf14-3-3I-GST; recombinant Pf14-3-3I; source: recombinant
T1 sequence: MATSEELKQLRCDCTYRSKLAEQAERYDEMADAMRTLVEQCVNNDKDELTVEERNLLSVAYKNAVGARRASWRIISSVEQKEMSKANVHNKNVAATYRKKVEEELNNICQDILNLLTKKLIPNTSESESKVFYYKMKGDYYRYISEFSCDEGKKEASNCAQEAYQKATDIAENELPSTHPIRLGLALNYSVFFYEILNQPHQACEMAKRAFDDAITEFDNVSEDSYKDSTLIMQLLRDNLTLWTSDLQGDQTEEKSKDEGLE

B1: 14-3-3 binding peptide RA (RLYHpSLPA) (peptide)
peptide: RLYH[pS]LPA
notes: Coupled to agarose beads (Pierce co-IP kit) for the pull-down; also called phosphopeptide RA; source: synthetic peptide
B2: 14-3-3 binding peptide AA (ARSHpSYPA) (peptide)
peptide: ARSH[pS]YPA
notes: Coupled to agarose beads (Pierce co-IP kit) for the pull-down; also called phosphopeptide AA; source: synthetic peptide

Molecular target: T1, recombinant glutathione S-transferase …
Assay: pull-down; peptides coupled to agarose beads (Pierce co-IP kit) incubated with GST-tagged Pf14-3-3I; eluates blotted with anti-Pf14-3-3I mouse sera; noncoated beads as control
Conditions: both partners purified

Row | Binder | binding result
1 | B1 | binds
2 | B2 | binds
